Assay results: US8492329B2, “Bioactive peptides and methods of using same” (Compugen Ltd., priority 2007, dated 2013)
No end group written: not given here.

Experiments:
[1] = target: T1, LGR8 (RXFP2) (Homo sapiens, UniProt Q8WXD0); test: Competition with Europium labelled INSL3 binding to HEK-293T cells expressing LGR8; parameters: expressed in transfected cells; conditions: LGR8 HEK-293T, FIG. 10; for effect on binding of Europium-INSL3: 0.01 nM-10 μM
Method: The ability of Peptides P74C13V (SEQ ID NO: 10) and P59C13V (SEQ ID NO: 6) to compete with the binding of known ligands to LGR7 or LGR8 was tested by testing the ability of P74C13V (SEQ ID NO: 10) and P59C13V (SEQ ID NO: 6) to compete with the binding of Europium labelled H2 Relaxin or INSL3 (manufactured by the H. Florey institute) to stable HEK-293T cell lines expressing LGR7 or LGR8 respectively.
HEK-293T cell lines expressing LGR8 (RXFP2) were treated with Europium labeled INSL3 (manufactured by the H. Florey institute). The cells were then treated with decimal increasing concentrations (0.01 nM, 0.1 nM, 1 nM, 10 nM, 100 nM, 1 μM, 10 μM) of un-labeled INSL3 (as a positive control) and the tested peptides P59C13V (P59) (SEQ ID NO: 6), P59C13V-Amide (P59-Amide) (SEQ ID NO: 5), P59-S-Amide (P59S) (SEQ ID NO: 1) and P74C13V (P74) (SEQ ID NO: 10). The binding results are shown as a percentage of specific binding of the radioactive test INSL3 (where 100% is the baseline radiation level). […] This means that the binding affinity of the Eur-INSL3 was increased by binding/activity of the P59C13V (P59) (SEQ ID NO: 6) peptide on the LGR8 receptor.

[2] = target: T1, LGR8 (RXFP2); test: pCRE-β-gal reporter assay in Forskolin-treated CHO-K1 cells transiently transfected with LGR8; format: cell-based; parameters: expressed in transfected cells; host or cells: CHO-K1 (transient); conditions: 5 uM Forskolin, FIG. 8A-B
Method: The ability of P74C13V (P74) (SEQ ID NO: 10) and P59C13V (P59) and P59C13V-Amide (P59-Amide) (SEQ ID NO: 6 and 5 respectively) to activate LGR7 (RXFP1) and LGR8 (RXFP2) was further tested by testing the ability of these peptides to influence cAMP activity induced by 5 μM Forskolin in CHO-K1 cells transiently transfected with LGR7/pCRE-β-gal or LGR8/pCRE-β-gal as compared to H2 relaxin and INSL3 respectively.
LGR8 transfected CHO-K1 cells were treated with 5 uM of Forskolin to stimulate cAMP. The cells were then challenged with increasing doses of INSL3 (as positive control), P74C13V (P74) (SEQ ID NO: 10), P59C13V with (P59-Amide) and without (P59) amide (SEQ ID NO: 5 and 6, respectively) and P59S-Amide (P59-S) (SEQ ID NO: 1). […] The results are presented as a percentage of Forskolin activity at various concentrations of the peptide (logarithmic scale). Each point represents three unrelated repeats for each experiment.

[3] = target: T1, LGR8 (RXFP2); test: cAMP accumulation (Hit Hunter cAMP kit) in CHO-K1 cells transiently transfected with LGR8; format: cell-based; parameters: expressed in transfected cells; host or cells: CHO-K1 (transient); conditions: for cAMP inhibition (Gi) effect: 1 uM, LGR8 CHO-K1 cells pre-treated with 10 uM Forskolin, FIG. 1; for change in cAMP, dose response, higher concentrations: concentrations higher than 100 nM (up to 10 uM); for change in cAMP, dose response, higher concentrations / change in cAMP, dose response, lower concentrations: 20 uM Forskolin, FIG. 2; for change in cAMP, dose response, lower concentrations: concentrations lower than 100 nM
Method: The ability of Peptides to affect cAMP concentration was examined in CHO-K1 cells transiently transfected with LGR7 (RXFP1) or LGR8 (RXFP2). The experiment measured cAMP concentration in response to the addition of the peptides.
LGR7 (RXFP1) or LGR8 (RXFP2) were transiently transfected into CHO-K1 cells as follows: Cells (12 million) were plated into T75 flasks on the day preceding transfection. Cells were transfected with a GPCR DNA and Gα16 using a lipid technique according to the manufacturer's recommendation. Cells were transfected for 5 hours, then re-plated into 96-well dishes (60,000 cells per well) and grown overnight. Transfected cells were plated into 24 wells of a 96-well plate. Cells were pre-treated with 0.5 mM IBMX (stimulation buffer) for 10 min at 37° C., then stimulated with either a positive control (Relaxin 2) or a candidate peptide (for Gs functional examination), followed by stimulation or a preincubation with 10 μM forskolin (for Gi functional examination). Following a 20 minutes stimulation by incubation with 1 μM of either positive control or the tested peptides, either with or without forskolin, intracellular cAMP was assayed using the Hit Hunter cAMP kit (DiscoveRx Corporation) according to the manufacturer's recommended protocol. Data was converted to nmol of cAMP by running a standard cAMP curve.
Relaxin was used as a positive control. cAMP level was elevated by pre-treatment with forskolin.
The transfected CHO-K1 cells were treated with 10 uM of Forskolin (Applied cell sciences (ACS)) for 10 minutes and then challenged with 1 uM of H2 Relaxin (ACS) (as a positive control), 1 uM of Peptide P59C13V (P59) (SEQ ID NO: 6), and Peptide P74C13V (P74) (SEQ ID NO: 10).
A dose response effect of P59C13V (P59) and P74C13V (P74) on CHO-K1 cells transiently transfected with LGR8 (RXFP2) was further examined (Method as above). CHO-K1 cells transiently transfected with LGR8 (RXFP2) were treated with 20 uM of Forskolin for 10 minutes and then challenged with either INSL3 (as a positive control), P59C13V (SEQ ID NO: 6) or P74C13V (P74) (SEQ ID NO: 10) at increasing concentrations from 1 nM to 10 uM.

T1 sequence (Q8WXD0 whole entry): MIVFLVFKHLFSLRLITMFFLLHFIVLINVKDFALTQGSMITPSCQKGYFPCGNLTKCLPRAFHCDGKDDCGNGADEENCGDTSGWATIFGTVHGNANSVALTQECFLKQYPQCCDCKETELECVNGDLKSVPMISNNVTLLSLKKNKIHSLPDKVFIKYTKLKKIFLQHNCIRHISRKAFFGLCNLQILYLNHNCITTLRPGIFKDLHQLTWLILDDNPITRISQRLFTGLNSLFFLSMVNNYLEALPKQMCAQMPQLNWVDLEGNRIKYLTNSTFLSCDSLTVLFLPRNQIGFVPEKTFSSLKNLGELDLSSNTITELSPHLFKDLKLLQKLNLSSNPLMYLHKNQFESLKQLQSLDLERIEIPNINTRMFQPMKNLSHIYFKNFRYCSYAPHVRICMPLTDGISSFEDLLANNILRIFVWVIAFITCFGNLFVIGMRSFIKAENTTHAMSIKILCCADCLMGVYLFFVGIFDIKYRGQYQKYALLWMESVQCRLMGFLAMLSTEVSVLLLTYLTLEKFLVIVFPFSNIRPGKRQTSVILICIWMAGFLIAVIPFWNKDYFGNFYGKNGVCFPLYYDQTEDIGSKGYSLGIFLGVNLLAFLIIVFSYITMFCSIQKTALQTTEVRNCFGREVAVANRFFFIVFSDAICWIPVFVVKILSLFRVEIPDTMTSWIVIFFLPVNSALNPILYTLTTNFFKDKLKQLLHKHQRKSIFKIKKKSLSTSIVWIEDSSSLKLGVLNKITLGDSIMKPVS

Substance	effect on binding of Europium-INSL3 [1]	CRE activation pattern relative to Forskolin [2]	cAMP inhibition (Gi) effect [3]	change in cAMP, dose response, higher concentrations [3]	change in cAMP, dose response, lower concentrations [3]	specific binding of Europium-INSL3 ([1]; at 1 nM and higher concentrations, 100% is baseline) [%]
AYAAFSV-Amide (AYAAFSV-NH2) [Peptide P59-S-Amide]	less apparent					
GQKGQVGPPGAAVRRAYAAFSV [Peptide P59C13V]	positive cooperative or allosteric effect	dual activation pattern effect	clear cAMP inhibition (Gi) effect	slight increase (Gs effect)	slight decrease in cAMP	~125
GQKGQVGPPGAAVRRAYAAFSV-Amide (GQKGQVGPPGAAVRRAYAAFSV-NH2) [P59C13V-Amide]	less apparent	slight activation pattern				
GQKGQVGPPGAAVRRAYAAFSVGRRAYAAFSV-OH [Peptide P74C13V]	less apparent	bell-shaped activation pattern	clear cAMP inhibition (Gi) effect	no effect	slight increase in cAMP	
H2 Relaxin: H2 Relaxin (ACS), positive control, known ligand of LGR7 (RXFP1) [reference compound]			affected only the LGR7 (RXFP1) receptor			
